Assay results from patent publication US20070031912A1 (RIKEN, published 2007).

What was measured:
mKO-FM14-C-LZB [1] = target: T1, mKO-FM14-C-LZB; assay: split fluorescent protein complementation in vitro, in vitro translated proteins mixed in PBS at 37° C., fluorescence after 3, 5 and 7 hours
T1 construct: Made by in vitro translation; also called fusion of the C-terminal fragment (169th-218th) of mKO-FM14 with leucine zipper basic (LZB)
T1 chain: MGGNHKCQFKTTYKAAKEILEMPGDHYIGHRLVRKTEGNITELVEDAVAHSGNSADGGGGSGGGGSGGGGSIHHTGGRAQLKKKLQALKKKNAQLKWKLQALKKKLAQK
Protocol: (§1) 20 μl of each mKO-FM14-N-LZA and mKO-FM14-C-LZB which was synthesized by in vitro translation was added to 1000 μl of PBS and the total volume was made up to 1040 μl. The mixture was left standing at 37° C. and the fluorescence measurements were carried out every 2 hours (after 3, 5 and 7 hours from the mixing) by a F-2500 (HITACHI). The method of measurement was by the double wavelength excitation and a single wavelength measurement (excitation spectra at 580 nm, green component and orange component were set at 500 nm and 548 nm, respectively) or by the double wavelength excitation and double wavelength measurement (green fluorescence at 509 nm by excitation by 470 nm and orange fluorescence at 560 nm by excitation by 520 nm were obtained) (FIG. 2). Also, as negative controls, 20 μl of each mKO-FM14-N and mKO-FM14-C which was synthesized by in vitro translation and to which no proteins for interaction were fused was added to 1000 μl of PBS and the total volume was made up to 1040 μl. The mixture was left standing at 37° C. and the fluorescence measurements were carried out every 2 hours (after 3, 5 and 7 hours from the mixing) by a F-2500 (HITACHI).

mKO-FM14-C-LZB [2] = target: T1, mKO-FM14-C-LZB; assay: split fluorescent protein complementation in vitro, fluorescence from 1 to 12 hours after mixing
Protocol: as §1, with “The mixture was left standing at 37° C. and the fluorescence measurements were carried out every 2 hours (after 3, 5 and 7 hours from the mixing) by a F-2500 (HITACHI).” left out
By substituting the 70th proline (P) of mKO with various amino acids, variants were obtained in which the ratio of green fluorescence and orange fluorescence was changed according to the passage of time. The variant in which 70th proline (P) was substituted with alanine (A), serine (S), cysteine (C), threonine (T), and valine (V) was designated as mKO-FM5, mKO-FM3, mKO-FM20, mKO-FM24 and mKO-FM14, respectively. Each variant was similarly split into two molecules and similarly fused with LZA and LZB to carry out analyses.

mKO-FM14-C = target: T2, mKO-FM14-C; assay: split fluorescent protein complementation in vitro, 20 µl of each in vitro translated fragment in PBS at 37° C., fluorescence after 3, 5 and 7 hours
T2 construct: Fragment without linker and leucine zipper, made by in vitro translation; also called C-terminal fragment from 169th to 218th of mKO-FM14; negative control without leucine zipper
T2 chain: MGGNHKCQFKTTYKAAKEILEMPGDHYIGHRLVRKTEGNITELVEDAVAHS
Protocol: as §1

B1: mKO-FM14-N-LZA (other)
chain: MVSVIKPEMKMRYYMDGSVNGHEFTIEGEGTGRPYEGHQEMTLRVTMAEGGPMPFAFDLVSHVFCYGHRVFTKYPEEIPDYFKQAFPEGLSWERSLEFEDGGSASVSAHISLRGNTFYHKSKFTGVNFPADGPIMQNQSVDWEPSTEKITASDGVLKGDVTMYLKLEGGNSADGGGGSGGGGSGGGGSIHHTGGRAQLEKELQALEKENAQLEWELQALEKELAQK
notes: Made by in vitro translation; also called fusion of the N-terminal fragment (1st-168th) of mKO-FM14 with leucine zipper acidic (LZA)
B1: binds (mKO-FM14-C-LZB [1]).

B2: mKO-FM3-N-LZA (other)
chain: MVSVIKPEMKMRYYMDGSVNGHEFTIEGEGTGRPYEGHQEMTLRVTMAEGGPMPFAFDLVSHVFCYGHRSFTKYPEEIPDYFKQAFPEGLSWERSLEFEDGGSASVSAHISLRGNTFYHKSKFTGVNFPADGPIMQNQSVDWEPSTEKITASDGVLKGDVTMYLKLEGGNSADGGGGSGGGGSGGGGSIHHTGGRAQLEKELQALEKENAQLEWELQALEKELAQK
notes: N-terminal fragment (1-168) of mKO-FM3 (serine at position 70) fused with LZA
B2: binds (mKO-FM14-C-LZB [2]).

B3: mKO-FM5-N-LZA (other)
chain: MVSVIKPEMKMRYYMDGSVNGHEFTIEGEGTGRPYEGHQEMTLRVTMAEGGPMPFAFDLVSHVFCYGHRAFTKYPEEIPDYFKQAFPEGLSWERSLEFEDGGSASVSAHISLRGNTFYHKSKFTGVNFPADGPIMQNQSVDWEPSTEKITASDGVLKGDVTMYLKLEGGNSADGGGGSGGGGSGGGGSIHHTGGRAQLEKELQALEKENAQLEWELQALEKELAQK
notes: N-terminal fragment (1-168) of mKO-FM5 (alanine at position 70) fused with LZA
B3: binds (mKO-FM14-C-LZB [2]).

B4: mKO-FM20-N-LZA (other)
chain: MVSVIKPEMKMRYYMDGSVNGHEFTIEGEGTGRPYEGHQEMTLRVTMAEGGPMPFAFDLVSHVFCYGHRCFTKYPEEIPDYFKQAFPEGLSWERSLEFEDGGSASVSAHISLRGNTFYHKSKFTGVNFPADGPIMQNQSVDWEPSTEKITASDGVLKGDVTMYLKLEGGNSADGGGGSGGGGSGGGGSIHHTGGRAQLEKELQALEKENAQLEWELQALEKELAQK
notes: N-terminal fragment (1-168) of mKO-FM20 (cysteine at position 70) fused with LZA
B4: binds (mKO-FM14-C-LZB [2]).

B5: mKO-FM24-N-LZA (other)
chain: MVSVIKPEMKMRYYMDGSVNGHEFTIEGEGTGRPYEGHQEMTLRVTMAEGGPMPFAFDLVSHVFCYGHRTFTKYPEEIPDYFKQAFPEGLSWERSLEFEDGGSASVSAHISLRGNTFYHKSKFTGVNFPADGPIMQNQSVDWEPSTEKITASDGVLKGDVTMYLKLEGGNSADGGGGSGGGGSGGGGSIHHTGGRAQLEKELQALEKENAQLEWELQALEKELAQK
notes: N-terminal fragment (1-168) of mKO-FM24 (threonine at position 70) fused with LZA
B5: binds (mKO-FM14-C-LZB [2]).

B6: mKO-FM14-N (other)
chain: MVSVIKPEMKMRYYMDGSVNGHEFTIEGEGTGRPYEGHQEMTLRVTMAEGGPMPFAFDLVSHVFCYGHRVFTKYPEEIPDYFKQAFPEGLSWERSLEFEDGGSASVSAHISLRGNTFYHKSKFTGVNFPADGPIMQNQSVDWEPSTEKITASDGVLKGDVTMYLKLEG
notes: Fragment without linker and leucine zipper, made by in vitro translation; also called N-terminal fragment from the 1st to the 168th of mKO-FM14; negative control without leucine zipper
B6: no binding (mKO-FM14-C).
